Test system: HEK293T
Assay: median enrichment of reporter reads in eGFP-reduced (low/intermediate) vs eGFP-high sorted cells (eGFP-extension fusion abundance) (ratio); higher = stronger loss of eGFP-fusion protein abundance (more destabilising extension)
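Also: lentiviral eGFP-IRES-mCherry reporter pool sorted by FACS 96 h post-transduction, gated on mCherry-high cells, Illumina read counts normalized per million, median across four biological replicates.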

Substance	median enrichment
SEITDTFFGIHILGLGGVAHACNPSPLGG [CTSL]	13.3
RRGEGRPAVDSLILGRSLGCAAISFCECANTKLSRAKL [SLC25A25]	8.98
YILDLFYFLWSKFWCD [MIER1]	7.56
AAAAAAA [Ala07]	8.7
WQMVIPFYFSS [CXorf1]	10.3
RCLELCCCQHDLFGA [TPH2]	5.32
LGP [COLQ]	0.326
SMKCLS [FANCI]	0.846
LKKKKQQVMELHILVTQWTIIGSHWKSGKNPWRLSFSDILPNALLSRIFVSFCLIFWGVFVVVGLFFVFFF [PPP1R12A]	5.8
KQP [PSG11]	0.269
YISHVNLPER [MSMO1]	15.7
YSYSVMTLVIFCVL [HTR1D]	15.3
LSGAQE [HELLS]	0.562
NNNN [Asn04]	0.299
RYGWYSLHI [WASHC4]	8.03
TPAPGLGRELTRTGCSQKAGPSLSPKPLLDLWRSCRLDREAVPLSSPSPSRASPWSFRSSFWGLFQVRRMEEGGQATQHPPTP [FOXN4]	5.36
VGTMAAGRAPGK [Degron APPBP2]	6
VGIRAAPSGAGTAGTAAILLLLVFFLLSKINCGNILVSCDVRCSFVVKFAIDIEIMTSVFPEIKHVSTQDFLDHSRKCQTFSQ [KISS1R]	7.04
YVFLQCVLQARFIITYRFMISKIK [CLEC3A]	9.75
LYRSRWFFTALDIIPFYHPFITPKVCLIASEVYKVV [PLPPR5]	7.74
LSCPDAME [MYH2]	0.416
QFLC [BEST3]	0.953
GSVQGFLGPSCLS [KCNA10]	0.463
LGYRFWKHLSLGPKEVLLPFWASITQVVPVLTAEETSLPLFVLSPSFFNSV [MS4A8]	15.7
WRFLLKLTLFHLSF [VHL]	9.11

Substance	median enrichment
WGPGRGPGAVGT [INSYN1]	5.06
QSPSVLPLSPLSPWPVVVPQPLPPSTSSVSPSPRLINLLIDCDSK [ERGIC3]	9.24
LSPLRNIINCRL [DKK2]	8.81
RTSRPTTLRKIEW [HCAR1]	1.94
KGPPLLILPTPPPRFSHWPGLGCPYRRSVCSPTVRRGHTLQNTAQNSKKSLHAK [IFI35]	11.2
RNHKEPSVPVHEISLLLENRNIDYQITMQLKPYCFFEQLFIPVIKTDCAEYSKRSEIGVYNYIFSDAIY [RPE]	8.87
YKRIS [KCNN2]	1.05
SNWGAFSPEQRGPRHAVERLHLPPFPGQQD [COX14]	0.854
RKCQEWKIFLILVQHEVVFRSLLSLIAILRFVGFYERLLLSGLKSFLNVCFLRSVIQLCEYFVTDLFQWLLV [HINT3]	11.3
YMQKWIK [KCNMB2]	11.9
SRL [ICAM4]	0.718
YPGASWLRLAPSGHLPWSDPFQMKCGDIDLFFFFFETEFHSCCPVWSAMAQSQLTATSASWVQAILLPQPPK [SPC24]	7.7
SGPPFGHHQVPKVPQEASTLHARPASISLSFPVWPSFEGHVRWRSQARQTLTRGLSSKRALGWTTENISSRGSYNKNTYLPAL [PLPP7]	3.53
YHPHSSSSPPNRLGSRGLLCKPTGQLWLRAHLLQRVPQPLLNLDFCPNPLPVTRSISLSLLSNGAWSTEASEAIALLAEVKRT [SLC18A3]	4.57
QSFTSKFYLLCLPLLSRRSCLLPGSLTCSLS [LRRC1]	18
QEGPGGPAVLSPAPLGGVW [GALNT2]	0.738
QSQPQLMPSQSQPPVTPSQSQPRVTPSQSQPHVTPYRSKSGKQKQSVPIPKTVSRKGTLKK [ADAM29]	0.14
QPGT [ZNF445]	1.04
YRHLVVFWEQKNYFLLTRLFVLKTIFLNLS [EP300]	14
YIRRHH [IFITM2]	9.67
YKP [ATP6V1A]	0.175
LPLPFTLT [ATF6B]	3.98
PHAQSPPIPHAAPPQSQATSCLLLVGGGLLSPSSLTFNLTLTLHRAPTLHPSWKAGLMASHWPPPPDQSVLFRGLAPFPVSLK [LGALS9]	5.55
PPPP [Pro04]	0.659
LIQHREVAACDLTHRFLCFLSHPGNLAFWFLPATLRLSSSAFQ [FHL2]	7.42

Substance	median enrichment
GIIIISTCPQFLSQSPSILTCTHSDAD [TCHHL1]	3.49
SHGGVRSCPCSESTFPAIPGAGGACASAIPCDQAPRGRDQRGRKHCACAELSASARRASLPNQPWVPGSRLEPAINSLFLAPG [TSSK6]	4.1
LAWDTEGPVRSIYCNSNCNLVLRRRESMFGQQNFSLSLKFTASISFPY [NUPR2]	7.51
CGAEHHPSH [PPM1J]	0.355
SVGQATPPSSSCLRRSHSIHWNRSWVSLCSCLSFPRDPTPLWGSGTLHCTGSLHTGRGTCAPTSETCRSPQLTCPTGAQHCTQ [MAP3K11]	5.17
QSSAQRRGSMC [FAM49A]	0.176
RGAV [RELT]	0.538
KGRGPAESPCCLLEPPADAVLGPT [MBD3]	1.08
LLKTCSTTVLDTH [ATF2]	8.11
EHH [SPRR2G]	0.297
YLEYIFV [CEP192]	4.56
YKRFNFQ [IGSF6]	1.72
YKSDCSVRIYIYRFQSNKWGNR [CCNG2]	4.91
RRRRRRRRRR [Arg10]	0.77
LSRLLASMDFSRDVDIVLRVH [DIP2C]	10.3
QPKTRGSDLC [EPC2]	0.415
RGCQLGRKRETRP [CCND2]	0.783
RGPALPPCTSPGAERS [PRMT1]	1.08
SGQGQPRD [SLC5A5]	0.35
YILKTQPSSKRHAPPHSPGPGRGGCSS [ADORA1]	2.57
KFVISFICIYVVN [HEATR5B]	13.7
PGCLPCLPRPALVAPTALTVNPEAGSPANLWAESGESWWMRLRRRQEHLETGASWTGTLPLPGHRSSGGSNLRLNTRHPCSQK [TMEM91]	3.37
YMHCSGS [STT3B]	2.33
LRMWKITCFYLELFNLKIRNCFLLLSQ [CCDC34]	26.1
LNCSQLEML [DNAJC24]	0.695

Substance	median enrichment
KKKKKKKKK [Lys09]	3.65
LKLQLNRGSRKLLSLRGGV [MIP]	14.1
CDARQFLDLGGLKRPPSCLLSFSVSSFLLVFFILFSFHQPSCILALQRDRDRSSAQGFSLPLFIMGGGYHPPSQSCEESGTSF [NOTCH3]	9.5
QMTKP [RBFOX1]	0.233
LQCTIFSHLYYFFSACIT [HAO1]	1.93
WEAGWG [RPS6KB2]	1.06
WDREDPA [BTNL3]	0.401
RHSELLAVEEHHAYL [YTHDC2]	0.354
QRPVLVSHPCHSRSLPVPLLPKMPWLDWTPSPHDHASDCHPLPVPKSMCTPLTTGTAPPNHRHQATI [PTPRCAP]	8.88
LKKKKKKALAFSCLFC [PCDH17]	25.4
YPLLKECEI [NCOA1]	0.498
SGEMCVTINSKMGKPPSPCI [AK3]	0.494
RELTCETSA [FOXP2]	0.325
RGKTWKRPACLQ [RRM1]	0.421
QHGGFGS [AKAIN1]	0.844
SPWSLVPGARASPPFHQPHRPLRGWSPLPGHGGRIPLGWSRLEKLLCQVCSLSAIVTSLPRGGDHITKRNSPFSKG [TCF21]	3.11
WGMFVPGKAGGEPLQHLYIQEACREELVCWPQEEWELQTRSSDSLWPESNLVSPPASLF [FGF1]	7.24
WAPLPPTPYQLQSGGFHAQMALGVTSSFACGP [TPGS2]	10.1
RGPASHGPRTMESPLSS [GNB1L]	0.533
RGPPGLWGERM [CHRNB4]	1.36
GHSPLLVPH [TP53]	0.449
SLYGAICPPSPSRTLEGTSAPAGLGPPLSLLQASWCLHTSGSWPRKSQQEQGMGEGRCHTTWR [CISH]	4.49
RGPPLAKACGRRWRPSLGRFQGASGKPDGCWWPFPRGLVSGPAQSLLRGRGWRLGSPACLAPPSERAALLSY [ARL6IP4]	10.9
APSCLSRCDRARPKPGCTLLDWASLHCLGKSAEGPKLLRGLRLVPTPKLVCSLPLPARVSGPRSIENTTTMARWKGLLVPASS [MLST8]	5.58
LPSRSTATQVYLPLPSNPFPRAIFISPNKRAPRK [HRC]	11.1

Substance	median enrichment
YYSKIKYINIYIYIYFRKKKKTNKQKNPTPVDTLIFPNEDFIYGMEWKKKQLF [BMP2]	49
QAR [MMP10]	0.457
CQKHKMMQCGPPCTFCNVIAVNGKTIALLKTHL [MARCH11]	12.3
GLLPVDEVSFL [ABCC5]	0.739
DDDDDDDDD [Asp09]	0.213
LTQPRGGSLVFVLKFLVPNVFSSTFS [IL36G]	15.7
WWWWWW [Trp06]	3.74
SPYRKAGRL [BCKDHB]	19.5
WGYWPTLWAPCSA [EFCC1]	7.99
LAHPKYACHLRPQAGHTGQPACRQDLPASSSQYSLQRLKCEAPAPPSALQPTGPGRTCPLSVSPSRVPRWRPLSTG [PAK6]	3.88
LCDCSKLWCKIPPVSSHLPDFYLGLARTSSPSYQPSLPPSSHWTPALALPLG [LY6G5C]	3.74
YALPSWPLISAWVDHPRLQRVEGGSSSWESF [TMEM214]	7.05
QTGHPTHLHAKILPASSLRVPW [UBL4B]	4.81
SYKSIVSDWTITSFNNVSNNVLY [FAM135A]	30.6
YRSRHLPQTWGGGPASSSTTLAPSLLTWVLAF [SCRIB]	13.1
SHH [SPRY2]	0.73
YAQP [MST1]	0.278
QWRGEGRLGALGGWEMLASKRLTGREAGTCPQHKRQVYPGSL [BTBD18]	8.86
SSLPWAG [TMEM266]	5.32
RESSCILENTIPDFPQTALHQYNCISSFYIVQ [SCRG1]	13.8
EEEEEEEEEE [Glu10]	0.42
QTLPFLFEFFRGKG [PCBD1]	2.9
CSDVPFIYNNVKCNCLVP [TCP1]	4.71
